First the molecules themselves.
B1: TPR 5TU (parent)
chain: GGAUCUUCUCGAUCUAACAAAAAAGACAAAUCUGCCACAAAGCUUGAGAGCAUCUUCGGAUGCAGAGGCGGCAGCCUUCGGUGGCGCGAUAGCGCCAACGUUCUCAACUAUGACACGCAAAACGCGUGCUCCGUUGAAUGGAGUUUAUCAUG

Variants at the floor of the assay were thinned out.

Variants of B1 are the subject of this series. The series is described as follows: polymerase ribozyme fitness, log enrichment relative to wild type (log ratio); higher = more active; in vitro selection for triplet polymerase activity. Put shortly: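 Mutant libraries of both subunits of a heterodimeric triplet polymerase ribozyme were PCR-built, transcribed, and selected once in triplicate, with frozen incubation at −7 °C and capture of gel-excised extended constructs on streptavidin beads before RT-PCR. Illumina sequencing of input and output libraries was filtered to genotypes with ≥10 input reads and ≥1 read per output. Fitness is the logarithm of genotype enrichment over wild-type enrichment, using inverse-variance-weighted replicate averages. The logarithm is base 2.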
In the case of A21G C38U, the “polymerase ribozyme fitness (log ratio)” value turned out to be 0.63.

As for A21C C32G G48A A122G G126U, the “polymerase ribozyme fitness (log ratio)” value was no more than -4.2. On to A21U A41C G86A G100U A110C, for which the “polymerase ribozyme fitness (log ratio)” value was no more than -4.2. On to A21G A49U G50A, for which the “polymerase ribozyme fitness (log ratio)” value was -0.423.

Turning to A21C U53A G58A C95U U101G C116A, the “polymerase ribozyme fitness (log ratio)” value is -0.162.

Regarding A21G G81U C95A C96A A98U U145A, the “polymerase ribozyme fitness (log ratio)” value was -1.34. The same measure for A21U A28C U53A G88C: no more than -4.2. Take A21C C87U A147U: the “polymerase ribozyme fitness (log ratio)” value was determined as 0.884. Regarding A21G U55G G143C, the “polymerase ribozyme fitness (log ratio)” value was -1.59. Consider A21C U45G C54G G143C, for which the “polymerase ribozyme fitness (log ratio)” value was no more than -4.2. Regarding A21C G84A C118A, the “polymerase ribozyme fitness (log ratio)” value is -0.563.

With A21U C93U U144C, the “polymerase ribozyme fitness (log ratio)” value is -0.648. For A21C C35A A39C G100C G136U, the “polymerase ribozyme fitness (log ratio)” value is no more than -4.2. In the case of A21U C57U C93G, the “polymerase ribozyme fitness (log ratio)” value is -3.29.

Regarding A21G U82A C96A U101G A121U, the “polymerase ribozyme fitness (log ratio)” value was determined as 0.493. As for A21G C76G A97U, the figure is no more than -4.2. Take A21U A24U A64C U101G A110G A138C U145A: the “polymerase ribozyme fitness (log ratio)” value was no more than -4.2. As for A21C G25A, the “polymerase ribozyme fitness (log ratio)” value is -2.85. For A21C G25A G92A G133U A150G, the “polymerase ribozyme fitness (log ratio)” value is no more than -4.2. A21G G81U G86U C123A: the “polymerase ribozyme fitness (log ratio)” value is -1.08. In the case of A21C G34A C43U A60C A64G A91U, the “polymerase ribozyme fitness (log ratio)” value is no more than -4.2.

Regarding A22C A40U C57U G58A G65A C75A G133A A138U A142C, the “polymerase ribozyme fitness (log ratio)” value was no more than -4.2.

For the variant A21G G50C A52C C79U C118U, the “polymerase ribozyme fitness (log ratio)” value was no more than -4.2. For A21G U33G A52C A64C C75G C93G U151G, the “polymerase ribozyme fitness (log ratio)” value was no more than -4.2. As for A21C G25A U127G, the “polymerase ribozyme fitness (log ratio)” value is no more than -4.2. As to A21G U151C, the “polymerase ribozyme fitness (log ratio)” value was -3.8.

On to A21U A24U G94U A97G A150C, for which the “polymerase ribozyme fitness (log ratio)” value is no more than -4.2.

As to A21G C93U, the “polymerase ribozyme fitness (log ratio)” value was -0.895.

Regarding A21G A52C G83U G84A U90C C95G G100A C103G A107U U139G, the “polymerase ribozyme fitness (log ratio)” value is no more than -4.2. As for A21G A41C G46A G65U, the figure is no more than -4.2; as for A21G C27U A40U C69U C95G A98G C99U A115U A142U, no more than -4.2; as for A21G G25U G50U C54U A73G C93A C108G C129G U135G, no more than -4.2. For the variant A21G G92C, the “polymerase ribozyme fitness (log ratio)” value came out at 0.365.

Turning to A21U U33G A49C G50C C54A U82G G92U, the “polymerase ribozyme fitness (log ratio)” value is no more than -4.2. The same measure for A21G A47C C51U C87U U90G: no more than -4.2.

Take A21G C27G U33C G58C C96U A97U A106G G141U: the “polymerase ribozyme fitness (log ratio)” value was no more than -4.2. As for A21G U139A, the figure is -3.9; as for A22C A39C U53A G68A A91U U146A, no more than -4.2; as for A21U G128A, -3.26. For the variant A21C C96A G143A U146G, the “polymerase ribozyme fitness (log ratio)” value was -3.61.

As to A21G C54U G140A U145G, the “polymerase ribozyme fitness (log ratio)” value is no more than -4.2.

Regarding A21G A40U, the “polymerase ribozyme fitness (log ratio)” value is 0.957. For A21C G68U, the “polymerase ribozyme fitness (log ratio)” value is no more than -4.2. With A21U A40U C85U G141A, the “polymerase ribozyme fitness (log ratio)” value was determined as 0.05. With A21U A24C C27G A28U G88U U102C A107C C114U, the “polymerase ribozyme fitness (log ratio)” value is no more than -4.2. Consider A21U C69U C96A C129A U135A G143U, for which the “polymerase ribozyme fitness (log ratio)” value is -0.753.

With A22C A137G, the “polymerase ribozyme fitness (log ratio)” value is -2.58. As to A21U G83C, the “polymerase ribozyme fitness (log ratio)” value was -1.57. As for A21U C32G C85A, the figure is no more than -4.2; as for A22C A39C, -2.49.

Take A21G U31A C51G G71U A89C A106G A110U A138G: the “polymerase ribozyme fitness (log ratio)” value is no more than -4.2. Turning to A21C A142C, the “polymerase ribozyme fitness (log ratio)” value was determined as 0.655. As for A21U C38A U102A A120U A147C, the figure is -2.82. The same measure for A21U A24U U44A U53G U78G A97U A137C G141C: no more than -4.2; for A21U C36A: -3.4. In the case of A21U G71C C93A, the “polymerase ribozyme fitness (log ratio)” value was no more than -4.2. As to A21G C35A A49G C96G, the “polymerase ribozyme fitness (log ratio)” value is no more than -4.2. As for A21G U44A G68U G83U A106G A115U C118A A119C C123U U144G, the “polymerase ribozyme fitness (log ratio)” value was no more than -4.2. For A21U A73U C116A U134A G141C A150G, the “polymerase ribozyme fitness (log ratio)” value was no more than -4.2. Turning to A21U A23G, the “polymerase ribozyme fitness (log ratio)” value is -2.94. For the variant A21U U61G G80A U101A, the “polymerase ribozyme fitness (log ratio)” value was -2.86. For the variant A21U G86A, the “polymerase ribozyme fitness (log ratio)” value is -0.555. Turning to A21C C32G G84A G117A U135A, the “polymerase ribozyme fitness (log ratio)” value was no more than -4.2. Take A21U A52G C87U C114U U144G: the “polymerase ribozyme fitness (log ratio)” value is -3.22. The same measure for A21U C32G U55A G83U: no more than -4.2. A21G A37U: the “polymerase ribozyme fitness (log ratio)” value was -0.976. Regarding A21U C57A A142U, the “polymerase ribozyme fitness (log ratio)” value is -0.38.

For A21G A22G A37C G62C G94C C103A A106C U130A, the “polymerase ribozyme fitness (log ratio)” value was no more than -4.2.

For A21U U53A C57U G83A C95U, the “polymerase ribozyme fitness (log ratio)” value was -4.06.

With A21G A138C, the “polymerase ribozyme fitness (log ratio)” value was -4. Consider A21G A73G C85A C103U A122U, for which the “polymerase ribozyme fitness (log ratio)” value is -1.86.

Regarding A21U U77G U78C G84A, the “polymerase ribozyme fitness (log ratio)” value was no more than -4.2. In the case of A21C U55G C93U G126U, the “polymerase ribozyme fitness (log ratio)” value was -0.141. Turning to A21U A26U G83A A106G, the “polymerase ribozyme fitness (log ratio)” value is -3.03. On to A21U G25A A89C, for which the “polymerase ribozyme fitness (log ratio)” value is -3.68. On to A21C A89C C95U A142G, for which the “polymerase ribozyme fitness (log ratio)” value was -3.16. As for A21C C57A C85G U130G, the figure is -4. For A21U G84C A121U A122C, the “polymerase ribozyme fitness (log ratio)” value was -1.35. With A21C G62C, the “polymerase ribozyme fitness (log ratio)” value was -0.587. Consider A21U C32G G50A G83A G136A, for which the “polymerase ribozyme fitness (log ratio)” value is no more than -4.2.

For A21U U56A C96U, the “polymerase ribozyme fitness (log ratio)” value is -0.871. For A21U A40G A60G C96G U146G, the “polymerase ribozyme fitness (log ratio)” value is -3.99. Regarding A21C U53A U56A C69U A98U G117C C118G U134A, the “polymerase ribozyme fitness (log ratio)” value is no more than -4.2. Take A21C G88U A142U: the “polymerase ribozyme fitness (log ratio)” value is no more than -4.2.

Values taken from the RNAGym collection of RNA variant scans (doi:10.1073/pnas.2313332121).
